Assay results from publication PMC11171812.

Target: recombinant Plasmodium knowlesi lactate dehydrogenase (Plasmodium knowlesi)
Experiment: native gel or EMSA; PAGE under native (non-reducing) conditions, 2 ug purified PkLDH in native sample buffer without SDS, 10% polyacrylamide gel without SDS, Coomassie Brilliant Blue R-250; single band between 135 and 180 kDa (monomer ~35.0 kDa on SDS-PAGE)

stoichiometry N: 4
Substance: recombinant Plasmodium knowlesi lactate dehydrogenase (enzyme)
